Assay results from article PMC11180174 (Nature Communications, 2024).

B1: LY-CoV1404 (also known as bebtelovimab) (antibody, V domains shown)
VH: QITLKESGPTLVKPTQTLTLTCTFSGFSLSISGVGVGWLRQPPGKALEWLALIYWDDDKRYSPSLKSRLTISKDTSKNQVVLKMTNIDPVDTATYYCAHHSISTIFDHWGQGTLVTVSS
VL: QSALTQPASVSGSPGQSITISCTATSSDVGDYNYVSWYQQHPGKAPKLMIFEVSDRPSGISNRFSGSKSGNTASLTISGLQAEDEADYYCSSYTTSSAVFGGGTKLTVL
notes: control antibody
B2: LY-CoV1404 (bebtelovimab) (antibody, V domains shown)
VH: B1 VH
VL: B1 VL
B3: neutralizing antibody 7F3 (antibody, V domains shown)
VH: EVQLVESGGGLVKPGRSLRLSCTASGFTFGDYAMSWFRQAPGKGLEWVGFIRSKAYGGTTEYAASVKGRFTISRDDSKSIAYLQMNSLKTEDTAVYYCTRDRYARYDILTGLSPAGADYFYYAMDVWGQGTTVTVSS
VL: EIVLTQSPATLSLSPGERATLSCRASQSVSSYLAWYQQKPGQAPRLLIYDASNRATGIPARFSGSGSGTDFTLTISSLEPEDFAVYYCQQRSNWPQYTFGQGTKLEIK
B4: 7F3 neutralizing antibody (IgG) (antibody, V domains shown)
VH: B3 VH
VL: B3 VL

Key:
[1] = biological target: T1, SARS-CoV-2 (Wuhan-Hu-1 strain) wild-type RBD, His-tagged (SARS-CoV-2 Wuhan-Hu-1 (MN908947.3), UniProt P0DTC2); experiment: BLI; conditions: both partners purified
T1 construct: source: HEK293F, transiently transfected, purified (Ni Sepharose); not shown: 8xHis, C-terminal, kept

[2] = biological target: T2, SARS-CoV-2 (Wuhan-Hu-1 strain) wild-type spike RBD-His (SARS-CoV-2 Wuhan-Hu-1 (MN908947.3), UniProt P0DTC2); experiment: BLI; conditions: both partners purified
T2 construct: source: HEK293F, transfected, purified (Ni Sepharose); not shown: His8, C-terminal, kept

| Binder | Kd [1] [pM] | koff [1] [s⁻¹] | kon [1] [M⁻¹ s⁻¹] | Kd [2] [pM] | koff [2] [s⁻¹] | kon [2] [M⁻¹ s⁻¹] |
| --- | --- | --- | --- | --- | --- | --- |
| B1 | < 1 | < 1e-07 | 79100 | – | – | – |
| B2 | – | – | – | < 1 | < 1e-07 | 79100 |
| B3 | < 1 | < 1e-07 | 192000 | – | – | – |
| B4 | – | – | – | < 1 | < 1e-07 | 192000 |
